Test results: the nanobody polyreactivity screen of Harvey et al. (2022)

Assay: yeast display, Sf9 membrane polyspecificity reagent, FACS + sequencing; frameworks hold sequencing errors
How it was run: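 Galactose-induced (36–48 hours) yeast carrying a synthetic nanobody display library were exposed to 10% biotinylated, detergent-solubilized Sf9 membrane reagent at 4 °C for 1 hour. FACS followed streptavidin microbead enrichment, using low and high (top ~1%) gates for expression (anti-HA) and reagent binding (streptavidin). Colony PCR, MiSeq 2 × 250 sequencing and CDR-length filtering followed. Labels for polyreactivity reflect the gate of origin.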

Sequence | polyreactivity (PSR sort gate)
QDQIVESGGGLVQAGGSLRLTCAASGLNIYDNMGWYRQAPGKERELVAAISSSGGSTSYADSVKGRFTISRDNAKNTFYVQMNSLKPEDTAVYYCAADSYPAYLGFVGFDYWGQGTQVTVSS | low polyreactivity
QDQLEESALGLVQAGGSLRLICAASGRTFQYYTMAWYRPAPAKEREFVAAIRDSGGSTYYADSVKGRFTISRDNAKNTVYLQMNSLKPEDTAVYYCNKVPNGPSNYDYWGQGTQVTVSS | high polyreactivity
QDQLEESGGGLRQAGGSLRLTCAASGIIFPYYTKGLYRQATGKEKLVAAISSRGGSTYYADSVKGRFTISRDNAKNTVYLQMTSLKPEDTAVYYCAAKNVYHDDFWGQGTQVTVSS | high polyreactivity
QDQLEESGGGLVQAGGSLRLSCAASGNIFPRNAMGWYRQAAGKERELVAAISASGDNTYYADSVKGRFTISRDNAKNTVYLQMNSLKPEDTAVYYCSAGTFYESIQPYESVAYYYWGQGTQVTVSS | low polyreactivity
QDQLEESGGGLVQAGGSLRLSCAASGSTFLVYAMGWYRQAPGKEREFVAAISWSGGSTFYADSVKGRFTISRDNAKNTVYLQMNSLKPEDTAVYYCAARQAGYSGRKLYYWGQGTQVTVSS | low polyreactivity
QDQLEESGGGLVQAGGSLRLSSAASGGTLYLYDMGWYRQAPGKERELVAAISYNGGSTYADSVKGRFTISRDNAKNTFYLQMNSLNPEDSAVYYCAADRPPRGLGGYWGQGTLVTVSS | low polyreactivity
QDQLEETGGGLVHAGGSLRLSCAASGRTFVVYDMGWYRQAPGKERELVAGIRWRGGSTYYADSVKGRFTISRDNAKNSVYLQMNSLKPVDTAVYYCAADVYLVKYDYWGQGTQVTVSS | low polyreactivity
QDQLGDSGGGLVQAGGSLSLSCAASGFIFYRYAMGWYRQAPGKERELVAAISGRGGSTYYADSVKGRFTISRDNAKNTVYLQMNSLKPEDTAVYYCATKPRSDSYGNYDYWGQGTQVTVSS | high polyreactivity
QDQLGESGGGLVQAGGSLRLSCAASGLTFYFYAMGWYRPAPGKEREFVATISFSGGSTYYADSVKGRFTISRDNAKNTVYIQMNSLKPEDTAVYYCNAESDYYWYPYNYWGQGTQVTVSS | low polyreactivity
QDQLVASGGGLVQAGGSSRLSCAASGRTFWSNAMGWYRQAPGKERELVAVITSSGGRTYYADSVKGRFTISRDNAKNTVYLQMNSLKPEDTAVYYCNVVCSPSLGVRTKYGYWGQGTHVTVSS | high polyreactivity
QDQLVDSGGGFVQAGGSLSLSCAASRRTFLYYAMGWYRQAPGKERELVAAIRRGSSTYYADSVKGRFTISRDNAKNNGFLQLISLIAADTAVYYCAAEFVNGPPYGAYDYWGQGTQVTVSS | high polyreactivity
QDQLVDSGGGIVQAGGILSYSCDPSGSNVRYNAMGWYRQAPGKERELVAGIRGSGGITYYADSVKGRFTISRDNAKNTVYLQMNSLKPEDSAVYYCAADVVVCSYQEDHSWGQGTQVTESS | low polyreactivity
QDQLVDSGGGLLQAGGSLRLSCAASGSMLSTYAMGWYRQATGKERELVASISSIAGSTYYADSVKGRFTISRDNAMNTVYLQLNILKPEDNAVYYCNKVYGGGSYDYWGQGTQVTVSS | low polyreactivity
QDQLVDSGGGLVQAGASLRISSATSGRILWEYAMGSYRQAPGKERQLVAAITISDGSTYYADSVKGRFTISRDNAKNTVYLQMNSLNPEDTEVYYCAADSYDYTPAYLFSYKYYYWGQGTQVTVSS | low polyreactivity
QDQLVDSGGGLVQAGGRLRLSCAASGLTLGSYAMGWSRQAPGQVRELVAAITRGGRSNYADSVKGRFSISRDNAKNTVYLQMYSLKPEDTAVYYCYADGPGYAAKYYWIYDYWGQGTQVTVSS | low polyreactivity
QDQLVDSGGGLVQAGGSLRLSCAASGFTLAYNTMGWYRQAPGKERELVASITSSGSSTYYADSEKGRFTITRDNGKYNVYLEMNSLKPEDTAVYYFNKVRPRKFWDYYYWGQGTQVTVSS | high polyreactivity
QDQLVDSGGGLVQAGGSLRLSCAASGSTFDANAMGWYRQAPGKERELVATISDGGSTNYADSVKGRFTISRDNAKNTVYLQMNSLKPEDTAVYYCAAVKLFLGLGYVYWGQGTQVTVSS | low polyreactivity
QDQLVDSGGGLVQAGGSLSLSCAASGRNFGLNAKGWYRQAPGKEREFVAAIDWNDASTFYADSVKGRFTISRDNAENTVYLQMNSLKPVETAVYYCAAPWWVTTGTKFDYWGQGTQVTVSS | high polyreactivity
QDQLVDSGGGLVQAGGSLSLSCAASGSILRTYAMGWYRQAPGKERELVAAISYRGVSTYYADSVKGRFTISRDNAKNTVYLQMNSLKPEDTAVYYCAADQLSDEYDYWGQGTQVTVSS | high polyreactivity
QDQLVDTVGGLVQAGGSLRLSCAASGRTFWFYAMGWYRQAPGKESELVASITTGGGTNYADSVKGRFTISRDNAKITVYLQMNSLKPEDTAVYYCAVKRYHFGSGVDWYGGSSYGYWGQGTQVTVSS | high polyreactivity
QDQLVEAGGGLVQAGGSLRLSCAASRRTFWKYARGWYIQAPGKERELVAAISSSGGNTYYADSVKGRFTISRDNAKNTVYLQMNRLKPEDTAVYYCAAPLPRGAYFYWGQGTQVTVSS | high polyreactivity

Sequence | polyreactivity (PSR sort gate)
QDQLVESGGCLVQAGGSLRLSCASSGSTFGDYAMGWYRQAPGKERELVAAISVSGASTYYADSVKGRFTISRDNAKNTVYLQMNSLKPEDTAVYYCAASYDTIGDSWGQGTQVSVSS | low polyreactivity
QDQLVESGGGIVQAGGSLRLSCAASGSTFYENAMGWYRQAPGKERELVAAITWSGGRTYYADSVKGRFTISRDNAKNTVYLQMNSLKPEDTAVYYCAALYGVSEEDDYWGQGTQVTVSS | high polyreactivity
QDQLVESGGGKVQAGGSLRLRCAASGRIFQYYTMVWSRQAPGKERELVAGITRGDRTYADSVKGRFTISRDNAKNTVYLQMNSLKQEDTAVYYCNADVYPYTLALPAGMGYWGQGTQVTVSS | high polyreactivity
QDQLVESGGGLDQAGGRLRLSCAASGFTFGRNAMGWYRPAPGKERELDAASSWSGGSTYYADSVKGRFTISRDYAKNTVYVQMNSLKPEDTAVYYCNKRSRLGRGNRDYWGQGTQVTVSS | high polyreactivity
QDQLVESGGGLDQAGRSLRLSCAASGFTYRPYAMGWYRQEPGKERELVAAISSIGSTYYADSVKGRFTISRDNAKYTVYLPMNSLNPEDTAVYYCIADSYVRSTIFDHWGQGTQVTVSS | low polyreactivity
QDQLVESGGGLFQAGGSLRLSCAASGRTFYTYAMGRYRPAPRKERELVAAITSGDGTYYADSVKGRFTISRDNAKNTVYLQMNSLKPEDTAVYYCADTRTYQLYRWAPRYYYWGQGTQVTVSS | high polyreactivity
QDQLVESGGGLLQAGGILRLRCAASGSILNYYAMGWYIQAPGKERELVAAISSSDGRTYYAYSEKGRFTISRDNAKNTVYLQMNSLKPEDSAVYYCAAEGTYSYSSWYEYWGQGTQVTLSS | high polyreactivity
QDQLVESGGGLLQAGGTLRLSCAASGPTFRAKAMGWNRQSPGKERELVAAITWDGGSRYYADSVKGRFTISRDYAKNTVYLQMNSLKPEYTAVYYCNTYPYLWGQGTLVTVSS | low polyreactivity
QDQLVESGGGLVHAGGSLRLSCAASGSTFDRYALGWYRQAPVKERELVATITRSGSTNYADSVKGRFTISRDNAKNTVYLQMNSLKTEDTAVYYCAAYDRITRYDYWGQGTQVTVSS | high polyreactivity
QDQLVESGGGLVQAGASLRLSCPASGFLFESNAMGWYRQAPGKERELVAAITKRGGSTYYADSVKGRFTISRDNAKNTVYLQMKSLKPEDTAVYYCARYSSRYSSGYDYWGQGTQVTVSS | high polyreactivity
QDQLVESGGGLVQAGCSLRLSCAASGRTFKDYAMGWYRQAPGKERELVAAITYRDRTYYADSVKGRFTISRDNAKNTVYLQMNSLNTEDTAVYYCNAEGFSGMDYWGKGTQVTVSS | low polyreactivity
QDQLVESGGGLVQAGGNLRLSCAASGRIYRYYAMGWYRQAPGKERELVATITLNTVSTYYADSVKGRFTISRDNAKNTVYVQKNSRTPEDTAVYYCAAGAVRFGAGYSRYWEDDYWGQGTQVTVSS | high polyreactivity
QDQLVESGGGLVQAGGRLRLSCAASGSTFLRYAMGWYRQAPGKERELVAAINLSGDRTYYADSVKGRFTISRDKAKNTFYLQMHSLKPEDTAVYYCAARWWGPSYDAYDYWGQGTQVTVSS | low polyreactivity
QDQLVESGGGLVQAGGRLRLSCAASGSTVGVYAMGWYRQAPGKERELVAAISYTGGSSYYADSVKGRFTISRDNAKNTVYLQMNSLKPEDTAVYYCAVEVGYTDSPYSYDYWGQGTQVTVSS | low polyreactivity
QDQLVESGGGLVQAGGRLRLTCAASGNTFSGNAMGWYRQAPGKERELVAAISGSGASTYYADSVKGRFTISRDNAKNTVYLQMNSLKPEDTAVYYCDADKPGIFSRFDYWGQGTQVTVSS | low polyreactivity
QDQLVESGGGLVQAGGRRRLSCAASGSIFGGYSMGWYRQAPGKERELVAAISRRGGNTYYADSVKGRFTISGDNAKNTVYLQMNSLKPDDTAVYYCAVRWPSARIPVKLDYWVQGTQVTVSS | high polyreactivity
QDQLVESGGGLVQAGGSLLLSCAASGLTVGRYAMGWYRQAPGKERELVAVINGSGGNTYYADSVKGRFTISRDHATNTVYLQMHSLKPEDTAVYYCNVDDWGQGTQVTVSS | low polyreactivity
QDQLVESGGGLVQAGGSLRISCAASGSTFFGYAMGWYRQAPGKERELVATISSGDSTNYADSVKGRFTFSRDNAKNTVYLQMNSLKPEDTAVFYCAAQGGDGVLALYYYWGQGTQVTVSS | low polyreactivity
QDQLVESGGGLVQAGGSLRLICAASGLTFKVYAMGWYRQAPGKERELVAAISWSGGSTYYADSVKGRFTISRDNAKNTVYLQMNSLKPEDTAVYYCAVEASYYVVFFPYEYWGQGTQVTVSS | low polyreactivity
QDQLVESGGGLVQAGGSLRLICAASGRIFNVYAMGWYRQAPGKERELVAAISWRGGNTYYADSVKGRFTISRDNAKNTVYLQMNSLKPEDTAVYYCAAVYRGYDYWGQGTQVTVSS | high polyreactivity
